The record followed here is patent publication CN114437205A.

This experiment has as its target SARS S-his (SARS).

B1: 抗体CT150 (antibody, V domains shown)
VH: QEQLVESGGGVVQPGRSLRLSCAASGFTFSSYAMHWVRQAPGEGLEWVALISYDGDNKYYADSVKGRFTISRDNSKTTLFLQMNSLRAEDTAVYYCARDRGSYFYGVDVWGQGATVTVSS
VL: DIQLTQSPSFLSASVGDRVTITCRASQDINSYLAWYQQKPGKAPKLLIYAASTLQSGVPSRFSGSGSGTEFTLTISSLQPEDFATYYCQQLNSYPIFTFGPGTKVDIK
In turn, B1 showed an EC50 of 0.129 µg/mL.
